Measured values: patent US12077763B2, “RNA-based control of powdery mildew” (Greenlight Biosciences, Inc., priority 2021, dated 2024)

Tested on: E. necator
Experiment: Leaf disc assay, dry inoculum (settling tower), decrease in disease severity / hyphal growth (Example 2)
Conditions: decrease in disease severity (hyphal growth) relative to untreated control, value ± SE; for % decrease =/− SE TP1: time point 1 (untreated control hyphal growth ≥50%); for % decrease =/− SE TP2: time point 2

Molecule | % decrease =/− SE TP1 | % decrease =/− SE TP2
GS3609 (nucleic acid) sense: CUGUCAAUAUUACAGCUUGAUAUGAAUCAAACUGGGAGAGAUCAGAAACUAAGCUUGUGGAGCUGUGAAUCUUAACAGGGGUGUAAGCAUUUAGUUCCGAAACUCGUUGAGCUGAGACAAUAUCUCUAGGUUUUCCUAUAUCUUCUGGGUUAAGAAAGAAUUGAGAUGAUAGGUCAGCGAUAGUUGCGGGAGCGGGAUCGUAUAAUGUUAGACUUUUAACUCCAGCCAGAGCUAUAUUCUUAGCUAUUUCGAUACCAAGACCUUUCAAGCCAAUAAUAAGAAUAUUCGAUGCACUCAUUCGUUUCAUAGCCUCGUGUCCAAGAACGUAGAGUUGCCUACUGUAUAAAGAC antisense: GUCUUUAUACAGUAGGCAACUCUACGUUCUUGGACACGAGGCUAUGAAACGAAUGAGUGCAUCGAAUAUUCUUAUUAUUGGCUUGAAAGGUCUUGGUAUCGAAAUAGCUAAGAAUAUAGCUCUGGCUGGAGUUAAAAGUCUAACAUUAUACGAUCCCGCUCCCGCAACUAUCGCUGACCUAUCAUCUCAAUUCUUUCUUAACCCAGAAGAUAUAGGAAAACCUAGAGAUAUUGUCUCAGCUCAACGAGUUUCGGAACUAAAUGCUUACACCCCUGUUAAGAUUCACAGCUCCACAAGCUUAGUUUCUGAUCUCUCCCAGUUUGAUUCAUAUCAAGCUGUAAUAUUGACAG | 13 ± 8% | 9 ± 6%
GS3603 (nucleic acid) sense: AGUCCAAAAGAGUCCAGGAGUUCGGUAUCGGAUCAUAACACCAAACAUCGUUAUACCAUUGAAGACCAUUUGUUCCGCCAAACAAGUAAAGCUUUUCAUUAUAUGUCACAACUGAGUGAUUUGUUCUAGCUGAUGGUAUUUGUCCUACUGGGGGUCCACCAUCCUCACUAUUUUUAAUGAGAAUUUCCCACCUGUUCGUAGGGACUUGCAAAAGAUUCAAAUCAAAAGCCACAAGGUCAUUCAUAAAAUAACCCUCUACUUGCCCCCCGAAUACGUAGAUUUUAGACCCUAGUAUAUUGA antisense: UCAAUAUACUAGGGUCUAAAAUCUACGUAUUCGGGGGGCAAGUAGAGGGUUAUUUUAUGAAUGACCUUGUGGCUUUUGAUUUGAAUCUUUUGCAAGUCCCUACGAACAGGUGGGAAAUUCUCAUUAAAAAUAGUGAGGAUGGUGGACCCCCAGUAGGACAAAUACCAUCAGCUAGAACAAAUCACUCAGUUGUGACAUAUAAUGAAAAGCUUUACUUGUUUGGCGGAACAAAUGGUCUUCAAUGGUAUAACGAUGUUUGGUGUUAUGAUCCGAUACCGAACUCCUGGACUCUUUUGGACU |  | 7 ± 5%
GS3606 (nucleic acid) sense: UAAGGUUGUGUCGGACAACACGAUUCAUACGAGCACUCCCGUCAUCUAAAUCAUCAUCUGCGAGUACAAUUAAAACAGUAUCCUUUCGCUUCUUCCCCUUAACUAGGACAGUAUCUCCACGAAAAAGCUGCAAAGUUUCCAUGGUAUUAUUUGACAGUGCAAUAACAGAGUUAUCAUCGUUGAUGGCAUCUGUUACAAUUAAGGAAUUUGGCUUUUUCUUCUUUUUUAAAAUAGCAGUCGCAGUAGCAUCAAUCGUCUUUUGUUCAGCGCCAGAGGCAUCCUCAAGUUUAACUGUUUUUU antisense: AAAAAACAGUUAAACUUGAGGAUGCCUCUGGCGCUGAACAAAAGACGAUUGAUGCUACUGCGACUGCUAUUUUAAAAAAGAAGAAAAAGCCAAAUUCCUUAAUUGUAACAGAUGCCAUCAACGAUGAUAACUCUGUUAUUGCACUGUCAAAUAAUACCAUGGAAACUUUGCAGCUUUUUCGUGGAGAUACUGUCCUAGUUAAGGGGAAGAAGCGAAAGGAUACUGUUUUAAUUGUACUCGCAGAUGAUGAUUUAGAUGACGGGAGUGCUCGUAUGAAUCGUGUUGUCCGACACAACCUUA | 3 ± 6% | 9 ± 7%
GS3610 (nucleic acid) sense: AUCAAACUGGGAGAGAUCAGAAACUAAGCUUGUGGAGCUGUGAAUCUUAACAGGGGUGUAAGCAUUUAGUUCCGAAACUCGUUGAGCUGAGACAAUAUCUCUAGGUUUUCCUAUAUCUUCUGGGUUAAGAAAGAAUUGAGAUGAUAGGUCAGCGAUAGUUGCGGGAGCGGGAUCGUAUAAUGUUAGACUUUUAACUCCAGCCAGAGCUAUAUUCUUAGCUAUUUCGAUACCAAGACCUUUCAAGCCAAUAAUAAGAAUAUUCGAUGCACUCAUUCGUUUCAUAGCCUCGUGUCCAAGAAC antisense: GUUCUUGGACACGAGGCUAUGAAACGAAUGAGUGCAUCGAAUAUUCUUAUUAUUGGCUUGAAAGGUCUUGGUAUCGAAAUAGCUAAGAAUAUAGCUCUGGCUGGAGUUAAAAGUCUAACAUUAUACGAUCCCGCUCCCGCAACUAUCGCUGACCUAUCAUCUCAAUUCUUUCUUAACCCAGAAGAUAUAGGAAAACCUAGAGAUAUUGUCUCAGCUCAACGAGUUUCGGAACUAAAUGCUUACACCCCUGUUAAGAUUCACAGCUCCACAAGCUUAGUUUCUGAUCUCUCCCAGUUUGAU | 10 ± 6% | 5 ± 6%
GS3613 (nucleic acid) sense: UGUAGCCGCAACAGUUUCAGCUGUCCCAGCUAGUCCUUCUGAUUGAAGUUUAUCAUUAGUAAUCCCUUUAGCGAUGGCGCCAUUAGUACCUUCGGUUGAGUUGCCAACAUUAGAUACUUCGCCAGCACCAUCAGAUACAUGUGUAGUUAAUUCUUCAGAGGUCUUGUCCGGACUAUCUAUUGCGAUCUUUACUGCAAUCUCACGACCUUGAACUUCUUUUCCAUUCAUUUCGGCAACAGCCCUAUUUUGAAGUUCAUUAGAUGCUAAGUUCACAAAGCCAAACCCACGGCCUUUCCGAGGUUCGUUGCGGGCCUGAAGCUUUUUAACCAUGAAUUUUGGAAUAGGACGCA antisense: UGCGUCCUAUUCCAAAAUUCAUGGUUAAAAAGCUUCAGGCCCGCAACGAACCUCGGAAAGGCCGUGGGUUUGGCUUUGUGAACUUAGCAUCUAAUGAACUUCAAAAUAGGGCUGUUGCCGAAAUGAAUGGAAAAGAAGUUCAAGGUCGUGAGAUUGCAGUAAAGAUCGCAAUAGAUAGUCCGGACAAGACCUCUGAAGAAUUAACUACACAUGUAUCUGAUGGUGCUGGCGAAGUAUCUAAUGUUGGCAACUCAACCGAAGGUACUAAUGGCGCCAUCGCUAAAGGGAUUACUAAUGAUAAACUUCAAUCAGAAGGACUAGCUGGGACAGCUGAAACUGUUGCGGCUACA | 11 ± 3% | 
GS3612 (nucleic acid) sense: AUGAGCUGGUCUUUCAGUGGAAUAUCUGUCAAUAUUACAGCUUGAUAUGAAUCAAACUGGGAGAGAUCAGAAACUAAGCUUGUGGAGCUGUGAAUCUUAACAGGGGUGUAAGCAUUUAGUUCCGAAACUCGUUGAGCUGAGACAAUAUCUCUAGGUUUUCCUAUAUCUUCUGGGUUAAGAAAGAAUUGAGAUGAUAGGUCAGCGAUAGUUGCGGGAGCGGGAUCGUAUAAUGUUAGACUUUUAACUCCAGCCAGAGCUAUAUUCUUAGCUAUUUCGAUACCAAGACCUUUCAAGCCAAUAAUAAGAAUAUUCGAUGCACUCAUUCGUUUCAUAGCCUCGUGUCCAAGAACGUAGAGUUGCCUACUGUAUAAAGACUCAUCGAUAACAUUAUUAUUUUCUU antisense: AAGAAAAUAAUAAUGUUAUCGAUGAGUCUUUAUACAGUAGGCAACUCUACGUUCUUGGACACGAGGCUAUGAAACGAAUGAGUGCAUCGAAUAUUCUUAUUAUUGGCUUGAAAGGUCUUGGUAUCGAAAUAGCUAAGAAUAUAGCUCUGGCUGGAGUUAAAAGUCUAACAUUAUACGAUCCCGCUCCCGCAACUAUCGCUGACCUAUCAUCUCAAUUCUUUCUUAACCCAGAAGAUAUAGGAAAACCUAGAGAUAUUGUCUCAGCUCAACGAGUUUCGGAACUAAAUGCUUACACCCCUGUUAAGAUUCACAGCUCCACAAGCUUAGUUUCUGAUCUCUCCCAGUUUGAUUCAUAUCAAGCUGUAAUAUUGACAGAUAUUCCACUGAAAGACCAGCUCAU | 22 ± 6% | 
GS3615 (nucleic acid) sense: UAUCAUUAGUAAUCCCUUUAGCGAUGGCGCCAUUAGUACCUUCGGUUGAGUUGCCAACAUUAGAUACUUCGCCAGCACCAUCAGAUACAUGUGUAGUUAAUUCUUCAGAGGUCUUGUCCGGACUAUCUAUUGCGAUCUUUACUGCAAUCUCACGACCUUGAACUUCUUUUCCAUUCAUUUCGGCAACAGCCCUAUUUUGAAGUUCAUUAGAUGCUAAGUUCACAAAGCCAAACCCACGGCCUUUCCGAGG antisense: CCUCGGAAAGGCCGUGGGUUUGGCUUUGUGAACUUAGCAUCUAAUGAACUUCAAAAUAGGGCUGUUGCCGAAAUGAAUGGAAAAGAAGUUCAAGGUCGUGAGAUUGCAGUAAAGAUCGCAAUAGAUAGUCCGGACAAGACCUCUGAAGAAUUAACUACACAUGUAUCUGAUGGUGCUGGCGAAGUAUCUAAUGUUGGCAACUCAACCGAAGGUACUAAUGGCGCCAUCGCUAAAGGGAUUACUAAUGAUA | 4 ± 5% | 5 ± 5%
GS3602 (nucleic acid) sense: CUUGGAACCGGUAUAUAUCCUAUGCAGUCCAAAAGAGUCCAGGAGUUCGGUAUCGGAUCAUAACACCAAACAUCGUUAUACCAUUGAAGACCAUUUGUUCCGCCAAACAAGUAAAGCUUUUCAUUAUAUGUCACAACUGAGUGAUUUGUUCUAGCUGAUGGUAUUUGUCCUACUGGGGGUCCACCAUCCUCACUAUUUUUAAUGAGAAUUUCCCACCUGUUCGUAGGGACUUGCAAAAGAUUCAAAUCAAAAGCCACAAGGUCAUUCAUAAAAUAACCCUCUACUUGCCCCCCGAAUACGUAGAUUUUAGACCCUAGUAUAUUGAGAGAAUGACCAUAACGCCCCGCGGG antisense: CCCGCGGGGCGUUAUGGUCAUUCUCUCAAUAUACUAGGGUCUAAAAUCUACGUAUUCGGGGGGCAAGUAGAGGGUUAUUUUAUGAAUGACCUUGUGGCUUUUGAUUUGAAUCUUUUGCAAGUCCCUACGAACAGGUGGGAAAUUCUCAUUAAAAAUAGUGAGGAUGGUGGACCCCCAGUAGGACAAAUACCAUCAGCUAGAACAAAUCACUCAGUUGUGACAUAUAAUGAAAAGCUUUACUUGUUUGGCGGAACAAAUGGUCUUCAAUGGUAUAACGAUGUUUGGUGUUAUGAUCCGAUACCGAACUCCUGGACUCUUUUGGACUGCAUAGGAUAUAUACCGGUUCCAAG | 5 ± 6% | 7 ± 8%
